The values that follow come from the nanobody polyreactivity screen of Harvey et al. (2022).

A short description of this data set: yeast display, Sf9 membrane polyspecificity reagent, FACS + sequencing; frameworks hold sequencing errors. A digest of the protocol:
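Genes from sorted yeast were amplified by colony PCR, read by MiSeq 2 × 250 sequencing and filtered on CDR length. These cells carried a synthetic nanobody library in Saccharomyces cerevisiae BJ5465 and were sorted by FACS into low and high (top ~1%) gates on anti-HA and streptavidin fluorescence. Polyreactivity is labelled according to the gate of origin.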
For “QVQLVESGGGLVQAGGSLRLSCAASGRIFGPYVMGWYRQAPGKERELVAAISTSGTSTYYADSVKGRFTISRDNAKNTVYLQMNSLKPEDTAVYYCAKRSGARHRLMDYWGQGTQVTVSS”, the “polyreactivity (PSR sort gate)” value is recorded as “low polyreactivity”.
Turning to “QVQLVESGGGLVQAGGSLRLSCAASGITVDSNAMGWYRQAPGKDRELVAAISSTGSTDYADSVKGRFTISRDNAKNTVYLQMNSLKPEDTAVYYCAADSRYYYYGYKISGDYDSWGQGTQVTVSS”, the “polyreactivity (PSR sort gate)” value is listed as “low polyreactivity”.
Consider “QVQLVESGGGLVQAGGSLRLSCAASGRTLRGYAMGWYRQAPGKERELVAAISKGGGSTFYADSVKGRFTISRDNAKNTVYLQMNSLKPEDTAVYYCAADYYSYTYYLDFDYWGQGTQVTVSS”, for which the “polyreactivity (PSR sort gate)” value was “high polyreactivity”.
For the sequence “QVQLVESGGGLVQAGGSLRLSCAASGIIFVYNAMGWYRPAPGKARELVAAINWRGDGTYYADSVKGRFTISRDNAKNTVYLQMNCLKPEDTAVYYCNAVRFRPNSHYRPVGYDYWGQGTQVTVSS”, the “polyreactivity (PSR sort gate)” value is “low polyreactivity”.
As for “QVQLVESGGGLVQAGGSLRLSCAASGFTLRLYVMGWYRQAPGKERELVAAITSSGGSTYYADSVKGRFTISRDIAKNTVYLQMNSLKPEDTAVYYCAAVNRKSQLYGYWGQGTQVTVSS”, the “polyreactivity (PSR sort gate)” value was “high polyreactivity”.
In the case of “QVQLVESGGGLVQAGGSLRLSCAASGITFTSYVMGWYRQAPGKERELVAAIRWSGGRTYYADSVKGRFTISRDNAKNTVYLQINSLKPEDTAVYYCAAYPSYYGDSGLRYDYWGQGTQVTVSS” it was “high polyreactivity”; in that of “QVQLVESGGGLVQAGGSLRLSCAASGRTFGDYAKGWYRQAPGKERELVAAISKSGGITYYADSVKGRFTISRDNAKNTVYLQMNSLKPEDTAVYYCAARRSGEGNYWGQGTQVTVSS”, “high polyreactivity”.
In the case of “QVQLVESGGGLVQAGGSLRLSCAASGIIFITYAMGWYRQAPGKERELVAAITNSGGGTYYADSVKGRFTISRDNAKNTVDLQMTSLKPEDTAVYYCAARKTAYGYRYDYWGQGTQVTVSS” it was “high polyreactivity”; in that of “QVQLVESGGGLVQAGGSLRLSCAASGRIFRPYAMGWYRQAPGKERELVAAITRGGSTKYADSVKGRFTISRDNAKNTVYLQMNSLKPEDTAVYYCAARGWSTGTSYRSAWWDYYYWGQGTQVTVSS”, “high polyreactivity”; in that of “QVQLVESGGGLVQAGGSLRLSCAASGNTFREYTMGWYRQAPGKERELVAGISGSGGRTYYADSVKGRFTISRDNAKNTVYLQMNSLKPEDTAVYYCNARWYYGIGYNYWGQGTQVSVSS”, “high polyreactivity”.
With “QVQLVESGGGLVQAGGSLRLSCAASGSNFVTNAMGWYRQAPGKERELVAAISVSGGSTYYADSVKGRFTFSRDNAKNTVYLQMNSLKPEDTEVYYCAADGFIGCRHIYEYWGQGTQVTVSS”, the “polyreactivity (PSR sort gate)” value was “low polyreactivity”.
With “QVQLVESGGGLVQAGGSLRLSCAASGRTFRAYAMGWYRQAPGKERELVAGITSGGSTNYADSVKGRFTISRDNAKNTVYLQMNSLKPEDTAVYYCAAKTHSRTKVYTADYWGQGTQVTVSS”, the “polyreactivity (PSR sort gate)” value was “high polyreactivity”.
The same measure for “QVQLVESGGGLVQAGGSLRLSCAASGSTFRINAMGWYRQAPGNERELVAAMSYNGGGTYADSVKGRFTISRDNAKNTVYLQMNSLKPEDTAVSYCAADTYYGQAYTAYTYRLYDYWGEGTQVTVSS”: “low polyreactivity”; for “QVQLVESGGGLVQAGGSLRLSCAASGYAKGWYRQAPGKESELDAAITSNGGRTYYADSVKGRFTISRDNAKNTVYIQMNSLKPEDTAVYYCATRSGPHYKTRWTYDLGYWGQGSQVTVSS”: “low polyreactivity”; for “QVQLVESGGCLVQAGGRLRLSCAASGIIFYLYAMAWYRQARGKVWELVATISRRGGSTYYADSVKGRFTISRDNAKNTVYLQMNSLKPDDTAVYYCATGHFSVGRSFSSGSYEYWGQGTQVTVSS”: “high polyreactivity”.
For “QVQLVESGGGLVQAGGSLRLSCAASGSILQTNVMGWYRQAPGKEREFVAAIRWSTVSTYYADSVKGRFTISRDNAKNTVYLQMKSLKPEDTAVYYCASAKSWYSYKMDYWGQGTQVTVSS”, the “polyreactivity (PSR sort gate)” value was “low polyreactivity”.
With “QVQLVESGGRLVQAGGSLSLSCAASGFIFWSYAMGWYRPAPGKERELVAAISARGGSTYYADSVKGRFTISRDNAKNTVYLQMTSLKPEDTAVYYCATYPTYEYDYWGQGTQVTLSS”, the “polyreactivity (PSR sort gate)” value is recorded as “high polyreactivity”.
Take “QVQLVESGGGLVQAGGSLRLSCAASGFTLISYDMGWYRPSPGKERELVAGISSGDSTDYADSVKGRFTISRDNAKNTVYLQMNSLKPEDTAVYYCAATWYGYYSRYDFYYWGQGTQVTVSS”: the “polyreactivity (PSR sort gate)” value is listed as “low polyreactivity”.
As to “QVQLVESGGGLVQAGGSLRLSCAASGSTFLNYAMGWYRQAPGKERELVAAISGRGGRTYYADSVKGRFTISRDNAKNTVYLQMNSLKPEDTAFYYCAARIWVSYTSYDYWGQGTQVTVSS”, the “polyreactivity (PSR sort gate)” value is on record as “high polyreactivity”.
As for “QVQLVESGGGLVQAGGSLRLSCAASGFTFSKYAMGWYRQAPGTERELVASIDDGGSTNYADSVKGRFTISRDNAKTTVYLQMNRLNPEDTAVYYCNASYPTGYWYYVIVQYDYWGQGTQVTVSS”, the “polyreactivity (PSR sort gate)” value is recorded as “low polyreactivity”.
Take “QVQLVESGGRLVQAGGSLRLSCSASGSTFRRNAMGWYRQAPGKERELVAAISWSSTRTYYADSVKGRFTISRDNAKNTVYLQMNSLKPEDTAVYYCAADSYGGGFQLYSYVSGLYYWGEGTQVTVSS”: the “polyreactivity (PSR sort gate)” value is reported as “high polyreactivity”.
Consider “QVQLVESGGGLVQAGGRLRLSCAASGSTIPPSAMGWYRQSPGKERELVAAITSGGSTYYADSVKGRLTISRDNAKNTVYIQLNSLKPEDTAVYYCNADQQTIRSAKNDYWGQGTQVTVSS”, for which the “polyreactivity (PSR sort gate)” value is “low polyreactivity”.
For “QVQLVESGGGLVQAGGSLRLSCAASGSTFYPKAKAWNRQAPGKERELVAGISSGGGTYYADSVKGRFTISRDNAKNTVYLQMNSLKREDTAVYYCNAYFLSSSLDYWGQGTQVTVSS”, the “polyreactivity (PSR sort gate)” value is listed as “low polyreactivity”.
Regarding “QVQLVESGGGLVHAGGSLRLSCAASGSIFEGNGMGWYRQAPGKERELVAAITFRSGSTYNADSVKGRFTISRDNEKNTVYLPMNSLKPEDTAVYYCAADEYYQVSAYDYWGQGTQVTVSS”, the “polyreactivity (PSR sort gate)” value is “low polyreactivity”.
Regarding “QVQLVESGGGLVQAGGSLRLSCAASGFTFSYYAMGWYRQAPGKERELVAAISWSGTAMYYADSVKGRFTISRDNAKNTVYLQMNSLKPEDTAVYYCAAGYSASRKVDYWGQGTQVTVSS”, the “polyreactivity (PSR sort gate)” value is given as “high polyreactivity”.
For the sequence “QVQLVESGGGLVQAGGSLRLSCAASGSIFYGNGMGWYRQAPGKERELVAVISVSGGRTFYADSVKGRFTISRDNAKNTVYLQMNSLKPEDTAVYYCATRTYRVDPEFGYWGQGTQVTVSS”, the “polyreactivity (PSR sort gate)” value is on record as “high polyreactivity”.
In the case of “QVQLVESGGGLVQAGGSLRLSCAASGSTFLSNAMGWYRQAPGKERELVASIDWSGVSTYYADSVKGRFTISRDNAKNTVYLQMNSLNPEDTAVYYCAAEQVQSWDAYYQVEEYDYWGQGTQVTVSS” it was “low polyreactivity”.
Regarding “QVQLVESGGGLVQAGGSLRLSCAASGRTFTQYAMGWYRQAPGKEREMVAAISWRGGSTYYADSVKGRFTISRDNAKNTVYVQMNSLKPEDTAVSYCAKRYFRGYPLYDYWGQGTQVTVSS”, the “polyreactivity (PSR sort gate)” value is “high polyreactivity”.
As to “QVQLVESGGGLVQAGGSLRLSCAASGSIFRRYAMGWYRQAPGKERELVAAISWRGDSTYYADSVKGRFTISRDNAKNTVYLQMNSLIPEDTAVYYCAADYYRAGRYWGQRHGYDYWGQGTQVTVSS”, the “polyreactivity (PSR sort gate)” value is given as “low polyreactivity”.
On to “QVQLVESGGGLVQAGGSLRLICAASGSTFYPNAIGWYRQAPGKERELVAAISYTGGRTYYADSVKGRFTISRDNAKNTVYLQMNSLKPEDTAVYYCAVLVVGSTTQDEPYFCGVEHDYWGQGTQVTVSS”, for which the “polyreactivity (PSR sort gate)” value is “low polyreactivity”.
Regarding “QVQLVESGGGLVQAGGSLRLSCAASGRIFNVNAMGWYRQAPGKERDLVARIDTGVGTKYADSVKGRFTISRDNAKNTVYLQMNSLKPEDTAVYYCAARSFSGYGYLVRPKWYYYWGQGTQVTVSS”, the “polyreactivity (PSR sort gate)” value is reported as “high polyreactivity”.
The same measure for “QVQLVESGGGLVQAGGSLRLSCADSGITFFTYAMGRYRQAPGKERELVAAISGSGGSTYYADYVKWRFTISRDNAKNTVYLQMNSLKPEDTEVYYCAAEYTYGSPYDYWGQGTQVTVSS”: “low polyreactivity”; for “QVQLVESGGGLVQAGGSLRLSCAASGRILQFNAMGWYRQATGKERELVAAISTSGGRTYYADSVKGRFTISRDNAKNTVYLQMISLKPEDTAVYDCNAVAYKLMGYWGQGTQVTVSS”: “high polyreactivity”; for “QVQLVESGGGLVQAGGSLRFSCAASGRIFPAYAMGWYRQAPGKEREWVDAISRRGGSTYYADTVKGRFTISRDNAKNTVYLQMNSLNPEDTAVYYCAKEVWDSLGYPHSGDYWGQGTQVTVSS”: “low polyreactivity”.
Regarding “QVQLVESGGGLVQAGGSLRLSCAASGRTIYQYAMGGYRQATGKARELDAAISRGGSTNFADSLKGRFTISRDNAKNTVYLQMNSLKPEDTAVYYCASWYKFLSLKRLYERDYWGQGTQVTVSS”, the “polyreactivity (PSR sort gate)” value is “high polyreactivity”.
In the case of “QVQLVESGGRSVQAGGSRRLSCAASGFSFHYYAMGWYRAAPATERELVAAITSRGTATYYADSVKGRFTISRDTAKITVDLLMNCLKPEDTAVYYCAKASTERMGSWGQGTQVTVSS”, the “polyreactivity (PSR sort gate)” value was “high polyreactivity”.
In the case of “QVQLVESGGGLVQAGGSLRLSCAASGLTIYYYAMGWYRQAPGKERELVAAITWRGGSTYYADSVKGRFTISRDNAKNTVYLQMNSLKPEDTAVYYCAADPGPYGYYYWGQGTQVTVSS”, the “polyreactivity (PSR sort gate)” value is on record as “low polyreactivity”.
For the sequence “QVQLVESGGGLVQAGGSLRLSCAASGRTFGFNVMGWYRQAPGKEREFVAAITRSGGSTYYADSVKGRFTISRDIAKNTVYLQMNSLKPEDTAVYSCAAYKFSARYYYWGQGTQVTVSS”, the “polyreactivity (PSR sort gate)” value is “high polyreactivity”.
In the case of “QVQLVESGGGLVQAGGSLRLSCAASGLTFDYYVMGWYRQAPGKERELVATISWSGDITYYADSVKGRFTISRDNAKNTVYLQMNSLKPEDTAVYYCATDKSYSSWSAQYDYWGQGTQVTVSS” it was “low polyreactivity”; in that of “KVQLVESGGGLVQAGGSLRLSCPASGITFYRYVMGWYRQAPGTERELVAAISSGGRTYYADSVKGRFTISRDNAKNTVYLQMNSLKPEDNAVYYCNRAAFQTRYESWGQGTQVTVSS”, “high polyreactivity”.
